Reference: US20230340152A1 (published 2023)

Experiments:
[1] = molecular target: T1, CD73 construct with chicken N- and C-terminal domain sequence with human V144 and N185 knocked in (chicken; human); assay: SPR, MEDI9447 dilutions from 5 nM to 0.3 nM
T1 chain: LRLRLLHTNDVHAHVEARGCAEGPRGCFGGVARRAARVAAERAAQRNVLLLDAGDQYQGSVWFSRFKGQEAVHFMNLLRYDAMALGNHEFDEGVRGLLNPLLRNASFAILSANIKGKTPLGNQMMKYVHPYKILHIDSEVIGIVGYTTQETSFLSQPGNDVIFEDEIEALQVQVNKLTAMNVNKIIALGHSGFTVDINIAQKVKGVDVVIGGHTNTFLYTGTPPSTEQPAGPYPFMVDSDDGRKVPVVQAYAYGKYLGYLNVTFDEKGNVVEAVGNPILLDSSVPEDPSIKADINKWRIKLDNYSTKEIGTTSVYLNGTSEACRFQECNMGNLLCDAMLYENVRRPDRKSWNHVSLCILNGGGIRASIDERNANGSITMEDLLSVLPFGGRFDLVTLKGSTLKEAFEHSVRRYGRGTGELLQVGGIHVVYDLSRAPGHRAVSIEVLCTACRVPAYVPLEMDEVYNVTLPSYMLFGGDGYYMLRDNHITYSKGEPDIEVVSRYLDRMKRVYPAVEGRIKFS
Source text: FIG. 24C depicts a close-up of the epitope residues located within the N-terminal domain of CD73. The most important residues for binding are shown highlighted and less impactful positions (Y135, K136, and N187) are in pink. The HDX interface is overlaid in blue. FIG. 24D depicts a surface representation showing that the epitope forms a near contiguous binding surface. FIG. 24E depicts a crystal structure of the open conformation of CD73 showing the position of the epitope at the apical, lateral surface of the N-terminal domain. […] In all crystal structures, the CD73 N-terminal domain, linker region, and C-terminal domain are depicted in yellow, orange, and blue, respectively.
Binding of MEDI9447 to wild-type and mutant CD73 proteins was measured by surface plasmon resonance (SPR) using a ProteOn instrument (BioRad). CD73 crude cell supernatant protein samples were diluted to 3 µg/ml in PBS, 0.005% Tween-20, pH 7.4 (BioRad) and immobilized to ~400 RU on a HTG tris-NTA sensor chip (BioRad) pre-activated with 10 mM NiSO₄, 10 mM MES, pH 6.0 (BioRad). […] Sensorgrams were recorded by flowing two-fold dilutions of MEDI9447 prepared in PBS, 0.005% Tween-20, pH 7.4, ranging from 5 nM to 0.31 nM. […] Antibody binding was measured at a flow rate of 100 µL/min with a 3 min association phase and 20 min dissociation phase. […] Binding kinetics were analyzed using the ProteOn data analysis software. […]

Murine CD73 ECD = molecular target: T2, Murine CD73 ECD (murine, UniProt Q61503 29-551, limits assumed); assay: SPR (ProteOn), antibody captured by anti-human Fc, CD73 ECD in mobile phase
T2 construct: extracellular domain; In-house recombinant ECD; also called murine CD73 extracellular domain; muCD73
T2 sequence (looked up): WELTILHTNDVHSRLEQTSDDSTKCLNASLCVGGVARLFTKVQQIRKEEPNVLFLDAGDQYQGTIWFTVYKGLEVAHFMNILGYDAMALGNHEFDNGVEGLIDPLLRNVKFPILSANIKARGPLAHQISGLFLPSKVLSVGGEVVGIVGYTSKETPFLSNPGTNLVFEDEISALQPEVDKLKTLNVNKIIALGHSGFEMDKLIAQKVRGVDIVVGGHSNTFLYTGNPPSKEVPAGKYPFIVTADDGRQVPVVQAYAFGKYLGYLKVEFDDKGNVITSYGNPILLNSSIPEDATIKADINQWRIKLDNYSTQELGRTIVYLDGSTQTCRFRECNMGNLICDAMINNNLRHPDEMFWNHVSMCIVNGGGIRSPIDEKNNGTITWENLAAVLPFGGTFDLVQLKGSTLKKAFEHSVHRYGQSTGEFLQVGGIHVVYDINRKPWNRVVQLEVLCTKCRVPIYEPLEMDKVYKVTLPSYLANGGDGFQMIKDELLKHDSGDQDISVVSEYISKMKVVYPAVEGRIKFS
Source text: A ProteOn XPR36 instrument was used to characterize binding of MEDI9447 to human, murine, and cynomolgus CD73 ECD. MEDI9447 was affinity-captured using an anti-human Fc antibody. CD73 ECD was in the mobile phase. The association and dissociation of CD73 to MEDI9447 could be accurately described with the Langmuir 1: 1 model.

[2] = molecular target: T1, CD73 construct with chicken N- and …; assay: SPR (ProteOn), CD73 variant immobilized
Procedure: Binding of MEDI9447 to wild-type and mutant CD73 proteins was measured by surface plasmon resonance (SPR) using a ProteOn instrument (BioRad). CD73 crude cell supernatant protein samples were diluted to 3 µg/ml in PBS, 0.005% Tween-20, pH 7.4 (BioRad) and immobilized to ~400 RU on a HTG tris-NTA sensor chip (BioRad) pre-activated with 10 mM NiSO₄, 10 mM MES, pH 6.0 (BioRad). An equivalently diluted crude cell supernatant sample from non-transfected cells was included as a reference channel control. Sensorgrams were recorded by flowing two-fold dilutions of MEDI9447 prepared in PBS, 0.005% Tween-20, pH 7.4, ranging from 5 nM to 0.31 nM. […] Antibody binding was measured at a flow rate of 100 µL/min with a 3 min association phase and 20 min dissociation phase. The sensor chip surface was regenerated between each run by an 800 s injection of 300 mM EDTA, pH 8.5 (BioRad) at a flow rate of 30 µL/min. Binding kinetics were analyzed using the ProteOn data analysis software. Double referencing was performed and, unless noted otherwise, a 1:1 Langmuir binding model was utilized to fit the data. Some CD73 variants containing mutations within the amino acid region 171-188 fit poorly to a 1:1 model (i.e., Chi² values >10% of Rmax). Where noted, these variants were fit with a heterogenous antigen (2:1) model. […]

B1: MEDI9447 (antibody, human IgG1, lambda, V domains shown)
VH: EVQLLESGGGLVQPGGSLRLSCAASGFTFSSYAYSWVRQAPGKGLEWVSAISGSGGRTYYADSVKGRFTISRDNSKNTLYLQMNSLRAEDTAVYYCARLGYGRVDEWGRGTLVTVSS
VL: QSVLTQPPSASGTPGQRVTISCSGSLSNIGRNPVNWYQQLPGTAPKLLIYLDNLRLSGVPDRFSGSKSGTSASLAISGLQSEDEADYYCATWDDSHPGWTFGGGTKLTVLG
notes: Human IgG1-TM (L234F, L235E, P331S), lambda light chain; also called clone 10.3 antibody; 73combo3
For B1, the “fold of the KD for wild-type CD73” value [1] was less than 20 fold, the koff (Murine CD73 ECD) was 2.32e-06 s⁻¹ and the kon (Murine CD73 ECD) was 2.41e+06 M⁻¹ s⁻¹. The Kd [2] was 0.079 nM.
